Experimental data taken from US11230711B2, “Inhibition of LET7I as a means to enhance the protective effect of progesterone against stroke” (UNIVERSITY OF NORTH TEXAS HEALTH SCIENCE CENTER, priority 2017, dated 2022).

Test system: primary cortical neurons
Experiment: Synaptic marker expression (Synaptophysin, Gap-43) in primary cortical neurons, immunostaining and qRT-PCR
Type: cell-based, mouse
Details: P4-ACM from 10 nM P4-treated astrocytes, 18 hrs, BDNF 50 ng/ml, FIGS. 1A-1B
Excerpt: FIG. 1A represents immune-staining of Gap43 (green) and Synaptophysin (red). FIG. 1B represents qRT-PCR analysis of Gap43 (left) and Synaptophysin (right) mRNA levels. Data are presented as a percentage of control (non-treated group) (*: p≤0.05, **:p≤0.01).
The use of animals for the purpose of generating primary cultures was approved by the Institutional Animal Care and Use Committee at the University of North Texas Health Science Center. All mice will be handled according to the Guide for the Care and Use of Laboratory Animals. Primary cultures of cortex and hippocampal neurons will be prepared from neonatal murine pups (C57BL/6 mice, Jackson Laboratory) as described by Sarkar et al. with modifications. Briefly, cortical tissues isolated from newborn mice (postnatal days 2-4, mixed gender) will be then dissociated with trypsin and DNase I for 10 min at 37° C., and wash twice with Neurobasal-A medium containing B-27 and further dissociated by gentle titration using a graded series of fine polished Pasteur pipettes. After centrifugation at 200×g for 3 min at 4° C., dissociated cells will be resuspended in Neurobasal-AB-27 medium, passed through a cell strainer with 70 μm mesh, and plated at 1.0×10^5 cells/cm2 on culture dishes precoated with poly-D-lysine. The culture dishes were kept at 37° C. in humidified 95% air and 5% CO2. For primary neuron-enriched culture, the initial culture medium was replaced after 5 h; subsequently, half of the medium was changed every 3 days. At day in vitro (DIV) 3, 1-β-arabinofuranosylcytosine (AraC) was added to a final concentration of 5 μM to prevent glial proliferation. Treatments of the primary neuronal cultures started at DIV 14. For glial-enriched cultures, confluent mixed glial cultures were placed on the shaker for 48 hrs to dislodge microglia, resulting in cultures enriched with astrocyte population.
Although the underlying mechanism remains unclear, one potential mediator for P4-induced synaptogenesis is BDNF [33].

[1] = listed as purified recombinant BDNF

B1: BDNF: purified recombinant brain-derived neurotrophic factor, 50 ng/ml, positive control (protein, UniProt P23560 19-247, looked up)
Neurotrophic factor BDNF …: APMKEANIRGQGGLAYPGVRTHGTLESVNGPKAGSRGLTSLADTFEHVIEELLDEDQKVRPNEENNKDADLYTSRVMLSSQVPLEPPLLFLLEEYKNYLDAANMSMRVRRHSDPARRGELSVCDSISEWVTAADKKTAVDMSGGTVTVLEKVPVSKGQLKQYFYETKCNPMGYTKEGCRGIDKRHWNSQCRTTQSYVRALTMDSKKRIGWRFIRIDTSCVCTLTIKRGR
- expression of Gap-43: increased expression
- expression of Synaptophysin: increased expression
- expression of Gap-43 [1]: increased the expression
- expression of Synaptophysin [1]: increased the expression
